In publication PMC10548395 one finds Kd data, which are given here for one substance.

The test deals with IQ∼Sec7PH fusion protein of IQSEC3 (not stated (human or rat cDNA cloned)) (UniProt Q9UPP2). Kind of test: ITC. (In general: In ITC the heat of successive injections is recorded.)
Chain of UniProt Q9UPP2 (Q9UPP2 whole entry, looked up, the tested form may be a part): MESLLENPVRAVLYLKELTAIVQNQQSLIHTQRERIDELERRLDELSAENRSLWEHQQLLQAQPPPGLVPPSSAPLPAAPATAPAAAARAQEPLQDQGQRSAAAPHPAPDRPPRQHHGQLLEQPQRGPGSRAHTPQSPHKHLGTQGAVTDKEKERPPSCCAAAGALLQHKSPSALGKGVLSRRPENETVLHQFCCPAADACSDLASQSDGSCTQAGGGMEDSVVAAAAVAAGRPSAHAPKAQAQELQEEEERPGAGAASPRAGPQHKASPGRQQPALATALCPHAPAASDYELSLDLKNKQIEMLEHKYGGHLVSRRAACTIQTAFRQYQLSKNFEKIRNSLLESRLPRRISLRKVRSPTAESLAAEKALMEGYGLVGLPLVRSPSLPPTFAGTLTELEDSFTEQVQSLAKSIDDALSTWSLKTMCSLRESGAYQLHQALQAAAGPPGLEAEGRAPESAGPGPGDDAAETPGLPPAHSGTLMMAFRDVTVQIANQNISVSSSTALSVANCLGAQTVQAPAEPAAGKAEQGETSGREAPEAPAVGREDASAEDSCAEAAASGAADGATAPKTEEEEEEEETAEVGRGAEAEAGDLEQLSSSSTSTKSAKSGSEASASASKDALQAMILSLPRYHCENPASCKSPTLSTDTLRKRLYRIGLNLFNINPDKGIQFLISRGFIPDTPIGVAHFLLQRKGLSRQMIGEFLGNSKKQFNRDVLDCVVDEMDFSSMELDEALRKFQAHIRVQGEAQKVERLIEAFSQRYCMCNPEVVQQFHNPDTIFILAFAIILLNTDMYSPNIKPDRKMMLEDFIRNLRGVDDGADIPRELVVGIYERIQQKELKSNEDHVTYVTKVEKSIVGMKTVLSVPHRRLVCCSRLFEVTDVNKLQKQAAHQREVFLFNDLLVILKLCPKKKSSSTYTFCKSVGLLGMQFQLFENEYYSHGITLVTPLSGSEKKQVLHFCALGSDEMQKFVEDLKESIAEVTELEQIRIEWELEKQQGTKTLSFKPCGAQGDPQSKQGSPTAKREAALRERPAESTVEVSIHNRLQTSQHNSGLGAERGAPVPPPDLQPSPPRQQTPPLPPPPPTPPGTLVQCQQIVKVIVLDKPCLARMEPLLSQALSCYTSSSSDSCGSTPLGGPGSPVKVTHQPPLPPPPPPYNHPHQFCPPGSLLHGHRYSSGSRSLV

As to “calmodulin (CaM) (from UniProt P0DP25 2-149) (natural protein)”, the Kd – broadly, the equilibrium constant for the complex coming apart – turned out to be 1 nM.
